Assay results: PMC7032593 (Nature cell biology, 2019)

Columns and labels:
[1] = target: ATG16L1β (full-length human ATG16L1, β isoform) (human, UniProt Q676U5 1-607); test: tandem affinity co-purification
[2] = target: GST-ATG12-5–16L1β complex (human, UniProt O94817 1-140; Q9H1Y0 1-275; Q676U5 1-607); test: pull-down
Sequence of GST-ATG12-5–16L1β complex (Q676U5 whole entry, one chain of several): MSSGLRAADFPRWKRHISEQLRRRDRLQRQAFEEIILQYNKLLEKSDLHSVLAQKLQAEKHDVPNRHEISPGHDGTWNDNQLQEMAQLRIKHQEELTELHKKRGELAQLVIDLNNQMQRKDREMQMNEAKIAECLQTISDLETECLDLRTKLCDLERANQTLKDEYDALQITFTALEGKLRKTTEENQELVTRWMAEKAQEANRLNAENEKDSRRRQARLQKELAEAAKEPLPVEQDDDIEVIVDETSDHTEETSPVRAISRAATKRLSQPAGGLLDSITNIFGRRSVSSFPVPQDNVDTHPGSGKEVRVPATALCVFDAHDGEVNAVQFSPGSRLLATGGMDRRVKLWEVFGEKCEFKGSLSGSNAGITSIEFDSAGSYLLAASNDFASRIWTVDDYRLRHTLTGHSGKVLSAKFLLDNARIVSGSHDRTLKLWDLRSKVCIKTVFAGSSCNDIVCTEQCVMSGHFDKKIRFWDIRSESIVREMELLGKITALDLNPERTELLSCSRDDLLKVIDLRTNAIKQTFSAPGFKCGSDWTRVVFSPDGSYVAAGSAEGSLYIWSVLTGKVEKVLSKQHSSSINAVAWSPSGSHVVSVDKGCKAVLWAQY

Sequence of ATG16L1β (full-length human ATG16L1, β isoform) (Q676U5 whole entry, canonical isoform): as the sequence (Q676U5 whole entry, one chain of several) above

binding result [1] | binding result [2] | Binder
binds | – | ATG12–ATG5 conjugate (GST-ATG12 with untagged ATG5) (complex, human) chain 1: MAEEPQSVLQLPTSIAAGGEGLTDVSPETTTPEPPSSAAVSPGTEEPAGDTKKKIDILLKAVGDTPIMKTKKWAVERTRTIQGLIDFIKKFLKLVASEQLFIYVNQSFAPSPDQEVGTLYECFGSDGKLVLHYCKSQAWG chain 2: MTDDKDVLRDVWFGRIPTCFTLYQDEITEREAEPYYLLLPRVSYLTLVTDKVKKHFQKVMRQEDISEIWFEYEGTPLKWHYPIGLLFDLLASSSALPWNITVHFKSFPEKDLLHCPSKDAIEAHFMSCMKEADALKHKSQVINEMQKKDHKQLWMGLQNDRFDQFWAINRKLMEYPAEENGFRYIPFRIYQTTTERPFIQKLFRPVAADGQLHTLGDLLKEVCPSAIDPEDGEKKNQVMIHGIEPMLETPLQWLSEHLSYPDNFLHISIIPQPTD
– | binds | ATG3 WT (enzyme) not shown
